Measurements as given in paper PMC314469, “Protein Interaction Networks by Proteome Peptide Scanning” (PLoS Biology, 2004).

B1: YGR130C 350-363 (peptide)
chain: DESPIDPSKAPKVP
B2: YPR060C 81-94 (peptide)
chain: DETPFFPDKIQKSF
B3: YDR403W 216-229 (peptide)
chain: SILPAFPSKSSNEQ
B4: YKR054C 2535-2548 (peptide)
chain: SNPPTDPGRIPMSE
B5: YER152C 237-250 (peptide)
chain: DELPSPPLRMVHID
B6: YBL095W 165-178 (peptide)
chain: SGFPLLPSKRGVTA
B7: YER025W 174-187 (peptide)
chain: SQRPGSPGRYKLVR
B8: YCR023C 384-397 (peptide)
chain: AVDPENPKKLASKF
B9: YJL139C 225-238 (peptide)
chain: SDFPYDPFRVMRLK
B10: YJL036W 96-109 (peptide)
chain: SIIPPLPDKKVFQY
B11: YAR002W 11-24 (peptide)
chain: ATVPSAPYRKQIIS
B12: YJL194W 18-31 (peptide)
chain: DDAPATPPRPLKRK
B13: YNL140C 149-162 (peptide)
chain: AVLPIEPMKIKGTT
B14: YIL067C 85-98 (peptide)
chain: DEPPSFPKRWGWLK
B15: YBL034C 1313-1326 (peptide)
chain: DDTPSIPSKISSKS
B16: YCR095C 250-263 (peptide)
chain: SREPEVPQRLLTLI
B17: YLR318W 152-165 (peptide)
chain: SNEPHLPPKWVQRS
B18: YPL202C 314-327 (peptide)
chain: SILPSTPTRPLSQS
B19: YLR330W 177-190 (peptide)
chain: SLGPLDPLKEISDL
B20: YGR162W 364-377 (peptide)
chain: ATTPAIPTKSDEAE
B21: YKR061W 225-238 (peptide)
chain: SDFPYDPFKVMRQN
B22: YGL165C 149-162 (peptide)
chain: DERPFRPKRTSRSA

Target: T1, Boi1 SH3 (BOI1_YEAST), P38041
T1 chain: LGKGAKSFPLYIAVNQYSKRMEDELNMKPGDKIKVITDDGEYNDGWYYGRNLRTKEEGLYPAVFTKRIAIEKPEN
Assay: SPOT array

Row | Binder | normalised SPOT signal, Boehringer light units (BLU); mean over the file's lines of this peptide
1 | B1 | 110
2 | B2 | 37.6
3 | B3 | 131
4 | B4 | 23.4
5 | B5 | 128
6 | B6 | 100
7 | B7 | 123
8 | B8 | 74.5
9 | B9 | 330
10 | B10 | 40.2
11 | B11 | 30.5
12 | B12 | 242
13 | B13 | 98.3
14 | B14 | 77.3
15 | B15 | 63.8
16 | B16 | 60
17 | B17 | 120
18 | B18 | 44.6
19 | B19 | 103
20 | B20 | 70.8
21 | B21 | 41.4
22 | B22 | 632

Target: T2, Rvs167 SH3 (RV167_YEAST), P39743
T2 chain: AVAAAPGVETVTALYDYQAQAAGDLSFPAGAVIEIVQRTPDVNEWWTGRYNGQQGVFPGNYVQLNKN
Assay: SPOT array

Row | Binder | normalised SPOT signal, Boehringer light units (BLU); mean over the file's lines of this peptide
23 | B1 | 0
24 | B2 | 23.6
25 | B3 | 68.1
26 | B4 | 40.5
27 | B5 | 124
28 | B6 | 354
29 | B7 | 94
30 | B8 | 5.3
31 | B9 | 42
32 | B10 | 22.3
33 | B11 | 145
34 | B12 | 4430
35 | B13 | 39
36 | B14 | 62.6
37 | B15 | 247
38 | B16 | 42.9
39 | B17 | 4.1
40 | B18 | 196
41 | B19 | 8.3
42 | B20 | 86.1
43 | B21 | 11.8
44 | B22 | 111

Target: T3, Boi2 SH3 (BOI2_YEAST), P39969
T3 chain: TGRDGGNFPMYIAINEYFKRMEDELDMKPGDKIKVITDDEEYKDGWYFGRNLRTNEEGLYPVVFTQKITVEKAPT
Assay: SPOT array

Row | Binder | normalised SPOT signal, Boehringer light units (BLU); mean over the file's lines of this peptide
45 | B1 | 11.7
46 | B2 | 16.5
47 | B3 | 25.1
48 | B4 | 56.4
49 | B5 | 28.3
50 | B6 | 22
51 | B7 | 51.1
52 | B8 | 53.1
53 | B9 | 33.6
54 | B10 | 49
55 | B11 | 53.7
56 | B12 | 101
57 | B13 | 37
58 | B14 | 112
59 | B15 | 115
60 | B16 | 67.2
61 | B17 | 9.7
62 | B18 | 19.1
63 | B19 | 42.4
64 | B20 | 42.2
65 | B21 | 40.1
66 | B22 | 169

Target: T4, Yfr024 SH3 (LSB3_YEAST), P43603
T4 chain: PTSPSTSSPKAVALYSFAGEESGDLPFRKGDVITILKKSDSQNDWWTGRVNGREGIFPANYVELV
Assay: SPOT array

Row | Binder | normalised SPOT signal, Boehringer light units (BLU); mean over the file's lines of this peptide
67 | B1 | 0
68 | B2 | 164
69 | B3 | 441
70 | B4 | 22.9
71 | B5 | 7450
72 | B6 | 4190
73 | B7 | 634
74 | B8 | 0
75 | B9 | 231
76 | B10 | 6960
77 | B11 | 1890
78 | B12 | 26500
79 | B13 | 605
80 | B14 | 9640
81 | B15 | 124
82 | B16 | 1140
83 | B17 | 2740
84 | B18 | 20300
85 | B19 | 13.6
86 | B20 | 166
87 | B21 | 33.2
88 | B22 | 7440

Target: T5, Yhr016c SH3 (YSC84_YEAST), P32793
T5 chain: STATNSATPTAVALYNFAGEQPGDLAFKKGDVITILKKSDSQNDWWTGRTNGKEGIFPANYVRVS
Assay: SPOT array

Row | Binder | normalised SPOT signal, Boehringer light units (BLU); mean over the file's lines of this peptide
89 | B1 | 120
90 | B2 | 0
91 | B3 | 108
92 | B4 | 259
93 | B5 | 6740
94 | B6 | 314
95 | B7 | 202
96 | B8 | 42.7
97 | B9 | 245
98 | B10 | 174
99 | B11 | 718
100 | B12 | 13400
101 | B13 | 191
102 | B14 | 2420
103 | B15 | 188
104 | B16 | 176
105 | B17 | 84
106 | B18 | 20300
107 | B19 | 206
108 | B20 | 0
109 | B21 | 119
110 | B22 | 992
